Reference: the supplement of paper PMC9170038

Test system: MS2 coat protein
Assay: apparent KD of MS2 coat protein; designed switch direction (-1 OFF switch, 1 ON switch): -1; higher = weaker reporter binding
How it was run: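 Each step of the titration lasted 0.8–1.5 h at the lowest concentration and 10–20 min at the highest. The protein, SNAP-549-labelled MS2 coat protein, went from 0.7 or 1.5 nM doubling to 3 µM over RNA switches transcribed on Illumina chips by stalled E. coli RNA polymerase. Normalised cluster fluorescence was curve-fitted, and the per-design median over clusters is given as apparent KD.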

[1] = input ligand: microRNA oligo, concentration not stated
[2] = Eterna round: R95, input ligand: FMN 200 uM
[3] = Eterna round: R95, input ligand: microRNA oligo, concentration not stated
[4] = Eterna round: R95, input ligand: none

Row | Sequence | apparent KD of MS2 coat protein (input ligand: FMN 200 uM) | apparent KD of MS2 coat protein [1] | apparent KD of MS2 coat protein (input ligand: none) | apparent KD of MS2 coat protein [2] | apparent KD of MS2 coat protein [3] | apparent KD of MS2 coat protein [4]
1 | CUAGCGAGUGUAGGAUAUCGGACUGUUUCAGUCUGAGAAGGACAUGAGGAUCACCCAUGUAUUGCUACGUGAGUAGCACGCUAG [JL ENG1 3.00] (Eterna round: R96, puzzle: Exclusion NG 1) | 32.9 nM | 17.5 nM | 19 nM | – | – | –
2 | UUCGUGUAAGGAUAUACGACUCAUCCCAAUGGGACGAGCACGUAGAAGGUACAUGAGGAUCACCCAUGUGCUCC [Eddianle] (Eterna round: R96, puzzle: Exclusion 4) | 284 nM | 33.3 nM | 39.9 nM | – | – | –
3 | UGUUGUUACGCAGGAUAUGAGGAUCACCCAUAUUAGGAUAUCGAAAGAGAAGUUCUGAGGAUCACCCAGAAGGGCGGGUUAACA [pwkr exNG2 2xF5 2xFMN.35] (Eterna round: R96, puzzle: Exclusion NG 2) | 117 nM | 37.8 nM | 53.2 nM | – | – | –
4 | UGUACUAACACGUAAGUGUUAGUACUAUAAGCUUGUGUUACAUGAGGAUCACCCAUGUCCUCAUAAGCUCGUCUUAA [Mat - Sensor v3 - Turn-off var 2 - D72] (puzzle: Sensor v3, turn-off variant 2) | – | – | – | 39.7 nM | 182 nM | 37.2 nM
5 | GGAUAAAACCGAGGAUAUACGUAUCACUAACGAGUAGAAGGCGGACAUGAGGAUCACCCAUGUGAGUUCUCAAUAAGAAACACG [Prohibition 64 - Jieux - Exclusion NG 1] (Eterna round: R96, puzzle: Exclusion NG 1) | 519 nM | 85.1 nM | 174 nM | – | – | –
6 | UAUUAGCAAGCGAGAUCCCACAUGAGGAUCACCCAUGUGCAUCCAGAAUUACUGGGUGCAAAAGCUCGUCUUAUAUA [Winner reversed engineered 2] (Eterna round: R97, puzzle: Sensor, turn-off variant 1) | 62.4 nM | – | 58.1 nM | – | – | –
7 | GGAUUUCGAGGAUAUACACGCAAAUAGGUGUAUCCUUUAGCACAUGAGGAUCACCCAUGUAGAAGGCGGGUACU [Eternabot (L1) Solution 19] (Eterna round: R97, puzzle: Exclusion 2) | 136 nM | – | 150 nM | – | – | –
8 | AGGUGUAGAGGAUAUUGAGUUCUUUACAUGAGGAUCACCCAUGUCCUGGGCACCCAGGACCAAGAAGGCUACACCA [Omei Ex5 D31] (Eterna round: R97, puzzle: Exclusion 5) | 38.4 nM | – | 72.6 nM | – | – | –
9 | GCUGGUCGAGGAUAUGCAUAUACUGGAUACAGUGGAAGGUCACAUGAGGAUCACCCAUGUAGAAGGCGACCAGC [EX2 #36] (Eterna round: R97, puzzle: Exclusion 2) | 634 nM | – | 527 nM | – | – | –
10 | CCGAAUAAGCAGGAUAUCGUUUCGGAAACGAAACGAGAAGGGCUAACAUGAGGAUCACCCAUGUUCCUUAACGG [Mat - Exclusion 6 - Eli Mod - D77] (puzzle: Exclusion 6) | – | – | – | 23.9 nM | 18.3 nM | 18 nM
11 | GGAUGAGAGCAGGAUAUCUUAUAAAUGUAUGAAAGAGAAGGGCUCACAUGAGGAUCACCCAUGUGGUCCUAGAU [jl-ex6-4.73 jandersonlee mod] (Eterna round: R97, puzzle: Exclusion 6) | 280 nM | – | 35.9 nM | – | – | –
12 | ACAUGUUAUCCAUGAUAUUACAUGAGGAUCACCCAUGUUAUGGCGAUUUUGAUGUGUAAGUUUGUUGCUCGUCUUAU [JR_STOV1_Sub060] (Eterna round: R97, puzzle: Sensor, turn-off variant 1) | 40.9 nM | – | 48.1 nM | – | – | –
13 | CGGCCGCAAGUCAGGAUAUGGACCUGCUUGGAGGACCAGAAGGGACAUGAGGAUCACCCAUGUGAUGAAAUAAA [BmEX4 A.24] (Eterna round: R97, puzzle: Brourd's mod of Exclusion 4) | 37.8 nM | – | 28.3 nM | – | – | –
14 | GAGUGAUGAGGAUAUACAUGAGGAUCACCCAUGUGCUUCAGCUAGGAGACUAGCAUUGGUAGAAGGCAUUACUC [Mod of lroppy 7 - Jieux - Exclusion 3] (Eterna round: R97, puzzle: Exclusion 3) | 90.1 nM | – | 15.8 nM | – | – | –
15 | AGCUAGUCAGGAUAUACAAACAUGUCAAAAGACGUGAAGAGACAUGAGGAUCACCCAUGUAGAAGGGACUAGCA [Mat - Exclusion 2 - JL mod - D13] (Eterna round: R96, puzzle: Exclusion 2) | 88.1 nM | 15.7 nM | 22.9 nM | – | – | –
16 | GGUCCACAUGAGGAUCACCCAUGUUAGGAUAUCUCGCCCGAGCCCAUAUGGGCCAGGCAGAGAAGGAAUGUGAA [Quertixees] (puzzle: Exclusion 1) | – | – | – | – | 18.8 nM | –
17 | GGCUUGCUAGUAGGAUAUCGCUUGUACAUGAGGAUCACCCAUGUGUGAUAUGCCUACAUAGUGCGUGAGAAGGACUGCAAGCCG [Diatdiinin] (Eterna round: R96, puzzle: Exclusion NG 2) | 23.2 nM | 8.15 nM | 14.1 nM | – | – | –
18 | GAUCCACAUGAGGAUCACCCAUGUGAGGAUAUGAUACUAUGUACUUCGGUACAUAGUAUCAGAAGGCACGGAUC [Ex1-3: 54] (puzzle: Exclusion 1) | – | – | – | – | 24.6 nM | –
19 | AAUAACAGAGGAUAUACUGUUUUAUGUGUUUAUUGUUUUAAACAUGAGGAUCACCCAUGUAGAAGGCUGAAUGA [JMF 58] (puzzle: Exclusion 2) | – | – | – | – | 36.4 nM | –
20 | GCUAAGGUAGGAUAUUGCGACGUGAACAUGAGGAUCACCCAUGUCUGGUCUGACAGGCAUCAAGAAGGGCCAGUCU [Eternabot (L2) Solution 30] (Eterna round: R97, puzzle: Exclusion 5) | 49.7 nM | – | 62.7 nM | – | – | –
21 | UAAAAGGUAGGAUAUACGAAAAAAAAGGGUAGAAAAAAAACACAUGAGGAUCACCCAUGUAGAAGGACCAAAAG [salish99_ex2_r3_048] (puzzle: Exclusion 2) | – | – | – | 64.3 nM | 29.8 nM | 30.1 nM
22 | GCUGGACGAGGAUAUGCAUUCGUGCUUCGGCACGUAAGGUCACAUGAGGAUCACCCAUGUAGAAGGUGUCCAGC [E2/6-B2] (Eterna round: R97, puzzle: Exclusion 2) | 24.1 nM | – | 18.4 nM | – | – | –
23 | UAUAAAAUAUAGGAUAUCGAAUAUAUUAUUUAACGAGAAGGAUGAACAUGAGGAUCACCCAUGUGGUAUCAUGG [Mat - Exclusion 6 - JL Mod - D37] (puzzle: Exclusion 6) | – | – | – | 199 nM | 255 nM | 415 nM
24 | GUGGUACAUGAGGAUCACCCAUGUUAGGAUAUCGCGUGAGGUUUUACUUCCGCACGCGCGAGAAGGGACGUCUU (puzzle: Exclusion 1) | – | – | – | – | 28.9 nM | –
25 | GAGCCACAUGAGGAUCACCCAUGUGAGGAUAUCAUGCUUCGUAGUAAACUACGAAGUGUGAGAAGGCACAAUGG [Omei Ex1 C5] (Eterna round: R97, puzzle: Exclusion 1) | 233 nM | – | 99.7 nM | – | – | –
